Data as given in patent publication US20240101635A1 (AKSTON BIOSCIENCES, published 2024).
Where a chain is given by its changes, count along the chain named. Numbers in names are those of the source. Like-named read-outs stand apart in the source and are kept apart here. One block for each binder: values may come before it.

Experiments:
human insulin receptor [1] = molecular target: T1, human insulin receptor (human, UniProt P06213 28-1382); assay: competition with biotinylated RHI on IM-9 cells, flow cytometry, 4 C
T1 construct: whole, on cells; Endogenous receptor on IM-9 cells; also called IR
T1 sequence (P06213 28-1382): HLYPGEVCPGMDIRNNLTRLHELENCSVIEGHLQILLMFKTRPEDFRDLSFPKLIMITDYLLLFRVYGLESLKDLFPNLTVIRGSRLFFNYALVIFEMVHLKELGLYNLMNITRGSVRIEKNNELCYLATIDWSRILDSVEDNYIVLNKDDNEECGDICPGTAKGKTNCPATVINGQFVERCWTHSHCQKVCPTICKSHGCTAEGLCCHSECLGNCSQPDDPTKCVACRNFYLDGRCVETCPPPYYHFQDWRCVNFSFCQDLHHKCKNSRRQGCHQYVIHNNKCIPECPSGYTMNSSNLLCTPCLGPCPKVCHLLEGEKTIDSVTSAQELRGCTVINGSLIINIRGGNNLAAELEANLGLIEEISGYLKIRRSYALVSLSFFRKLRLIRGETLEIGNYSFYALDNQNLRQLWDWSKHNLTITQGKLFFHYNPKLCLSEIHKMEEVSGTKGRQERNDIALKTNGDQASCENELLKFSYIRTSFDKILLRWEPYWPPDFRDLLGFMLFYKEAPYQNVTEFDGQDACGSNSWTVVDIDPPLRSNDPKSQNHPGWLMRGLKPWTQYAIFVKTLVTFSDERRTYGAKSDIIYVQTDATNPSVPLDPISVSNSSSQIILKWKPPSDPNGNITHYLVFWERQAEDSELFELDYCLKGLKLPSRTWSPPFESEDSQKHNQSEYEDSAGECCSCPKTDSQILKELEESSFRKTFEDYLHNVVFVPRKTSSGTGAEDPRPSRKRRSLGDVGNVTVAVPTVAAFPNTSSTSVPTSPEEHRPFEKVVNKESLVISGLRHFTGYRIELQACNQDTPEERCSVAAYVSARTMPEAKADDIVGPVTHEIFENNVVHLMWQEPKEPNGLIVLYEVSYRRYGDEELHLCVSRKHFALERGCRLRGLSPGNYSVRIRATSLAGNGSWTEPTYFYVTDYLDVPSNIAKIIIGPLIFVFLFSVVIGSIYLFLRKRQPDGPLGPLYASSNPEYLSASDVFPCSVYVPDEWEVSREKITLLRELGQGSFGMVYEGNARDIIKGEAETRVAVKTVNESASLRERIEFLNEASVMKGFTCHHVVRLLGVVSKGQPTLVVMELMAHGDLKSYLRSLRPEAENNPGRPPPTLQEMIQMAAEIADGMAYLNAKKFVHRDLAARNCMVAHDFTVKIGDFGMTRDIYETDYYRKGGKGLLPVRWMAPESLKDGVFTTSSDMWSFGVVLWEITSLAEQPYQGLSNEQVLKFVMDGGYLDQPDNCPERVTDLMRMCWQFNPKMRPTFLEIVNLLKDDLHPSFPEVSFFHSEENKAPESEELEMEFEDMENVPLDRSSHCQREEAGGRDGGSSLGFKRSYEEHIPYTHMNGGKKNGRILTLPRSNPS
Method: (§1) 40 μL of an IM-9 cell suspension (8×10⁶ cells/mL) was then added to each well by multichannel pipette, mixed again gently and incubated on ice for 30 min to allow competitive binding on the insulin receptor on IM-9 cells. Cells were then washed twice with 275 μL of ice-cold FACS wash buffer (HBSS/2 mM EDTA/0.1% Na-azide+0.5% horse serum) by centrifuging the V-bottom plate at 3000 rpm for 3 min and aspirating the supernatant. Cells were then resuspended in 40 μL of FACS staining medium containing 1:100 diluted Streptavidin-PE (Life Technologies) for 20 min on ice. Cells were then washed once with 275 μL of ice-cold FACS buffer and finally fixed with 3% paraformaldehyde for 10 min at room temp. Cells were then washed once with 275 μL of ice-cold FACS buffer and resuspended in 250 μl of FACS buffer for analysis.
(§2) The V-bottom plates containing cells were then analyzed on a Guava 8-HT flow cytometer (Millipore). Biotinylated-RHI binding to insulin receptor was quantitated by the median fluorescence intensity (MFI) of the cells on the FACS FL-2 channel for each concentration of the test compound. Control wells were labeled only with biotinylated-RHI and were used to calculate the percent (%) inhibition resulting from each test compound concentration. The % inhibition by test compounds of biotinylated-RHI binding on IM-9 cells was plotted against log concentrations of the test compound, and the resulting IC50 values were calculated using GraphPad Prism (GraphPad Software, La Jolla, CA) for the test compounds. Lower IC50 values of the test compound therefore indicate greater levels of biotinylated-RHI inhibition at lower concentrations indicating stronger binding of the insulin-Fc fusion protein to the insulin receptor. A control compound, such as unlabeled recombinant human insulin (RHI) was also used as an internal standard to generate an RHI IC50 against which a given compound IC50 could be ratioed (IC50(compound)/IC50(RHI)). Lower IC50 ratios have more similar binding to RHI (stronger binding to insulin receptor), while higher IC50 ratios have weaker binding to the insulin receptor relative to RHI.

human insulin receptor [2] = molecular target: T1, human insulin receptor; assay: as above; remark: listed apart in the source
Method: as §1, §2

[3] = molecular target: T2, biotinylated recombinant human Fc(gamma) receptor I (human, UniProt P12314 16-288, biotinylated (site not stated)); assay: ELISA, fusion protein coated, biotinylated rhFc(gamma)RI in solution, pH 7.4
T2 construct: Bought reagent, used as surrogate for canine/feline Fc(gamma)RI; also called rhFc(gamma) receptor I; Fc(gamma)RI
T2 sequence (P12314 16-288 limits assumed): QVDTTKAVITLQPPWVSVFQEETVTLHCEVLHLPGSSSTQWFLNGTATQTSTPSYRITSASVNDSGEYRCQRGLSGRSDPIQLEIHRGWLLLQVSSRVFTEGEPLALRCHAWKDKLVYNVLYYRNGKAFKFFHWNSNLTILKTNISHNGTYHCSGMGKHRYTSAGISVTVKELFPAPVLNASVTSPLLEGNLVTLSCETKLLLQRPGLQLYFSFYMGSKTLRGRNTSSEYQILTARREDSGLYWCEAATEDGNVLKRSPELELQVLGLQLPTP
Method: (§3) The binding of insulin-Fc fusion proteins to the Fc(gamma) receptor I at pH 7.4 was conducted using an ELISA assay as follows. Since neither canine nor feline Fc(gamma) receptor I was not commercially available, human Fc(gamma) receptor I (i.e., rhFc(gamma) receptor I) was used as a surrogate mammalian receptor. Insulin-Fc compounds were diluted to 10 μg/mL in sodium bicarbonate buffer at pH 9.6 and coated on Maxisorp (Nunc) microtiter plates overnight at 4° C., after which the microplate strips were washed 5 times with PBST (PBS/0.05% Tween-20) buffer and blocked with Superblock blocking reagent (ThermoFisher). Serial dilutions of biotinylated rhFc(gamma) receptor I (recombinant human Fc(gamma)R-I; R&D Systems) were prepared in PBST/10% Superblock buffer from 6000 ng/mL to 8.2 ng/mL and loaded at 100 μL/well onto the microplate strips coated with insulin-Fc fusion protein. The microtiter plate was incubated for 1 hour at room temperature after which the microplate strips were washed 5 times with PBST and then loaded with 100 μL/well of streptavidin-HRP diluted 1:10000 in PBST/10% Superblock buffer. After incubating for 45 min, the microplate strips were washed again 5 times with PBST. TMB was added to reveal the bound Fc(gamma) receptor I proteins and stopped with ELISA stop reagent (Boston Bioproducts). The plate was read in an ELISA plate reader at 450 nm, and the OD values (proportional to the binding of rhFc(gamma) receptor I to insulin-Fc protein) were plotted against log concentrations of rhFc(gamma) receptor I added to each well to generate binding curves using GraphPad Prism software.
Low Fc(gamma) receptor binding is most likely to correlate with minimum immunogenicity.

[4] = molecular target: T2, biotinylated recombinant human …; assay: as above; remark: listed apart in the source
Method: as §3
The insulin-Fc fusion protein of SEQ ID NO: 40 was synthesized in HEK293 cells according to the procedure of Example 1 and purified using a Protein A column according to Example 3. The structure of the insulin-Fc fusion protein was confirmed according to Example 4 by non-reducing and reducing CE-SDS, and the sequence was further identified by LC-MS with glycan removal according to Example 5. The protein yield was 174 mg/L at this stage. The % homodimer for the sequence was measured by size-exclusion chromatography according to Example 6 and was determined to be 98.9% resulting in a homodimer titer of 172 mg/L which meets the manufacturing design criteria.

human insulin receptor [5] = molecular target: T1, human insulin receptor; assay: competition with biotinylated RHI on IM-9 cells, flow cytometry, 4 C; remark: listed apart in the source
biotinylated canine FcRn = biotinylated canine FcRn (canine, UniProt A0A8I3PFR8 25-347, biotinylated (site not stated)); assay: ELISA pH 5.5, fusion protein coated, biotinylated canine FcRn titrated
Chain of biotinylated canine FcRn (A0A8I3PFR8 entry or part of it): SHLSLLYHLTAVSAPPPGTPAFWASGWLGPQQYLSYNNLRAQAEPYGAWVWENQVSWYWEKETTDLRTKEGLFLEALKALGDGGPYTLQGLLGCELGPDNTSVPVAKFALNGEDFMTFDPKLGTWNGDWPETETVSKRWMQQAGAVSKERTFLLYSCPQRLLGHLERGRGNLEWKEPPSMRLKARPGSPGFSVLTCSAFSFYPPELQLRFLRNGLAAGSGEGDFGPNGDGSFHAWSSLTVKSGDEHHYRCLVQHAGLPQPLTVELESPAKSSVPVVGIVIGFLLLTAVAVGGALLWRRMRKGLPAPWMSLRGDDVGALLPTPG
Method: Insulin-Fc fusion proteins comprising Fc fragments of canine or feline origin were diluted to 10 μg/ml in sodium bicarbonate pH 9.6 buffer and coated in duplicate on Maxisorb ELISA plate strips for 1-2 hours at RT. The strips were then washed 4 times with PBST (PBS/0.1% Tween-20) buffer and blocked with Superblock blocking reagent (ThermoFisher). Strips for FcRn binding were then washed again twice with pH 5.5 MES/NaCl/Tween (50 mM MES/l50 mM NaCl/0.1% Tween-20) buffer before addition of the FcRn reagent (biotinylated canine FcRn; Immunitrack). […] Serial dilutions (1:3× dilutions) of biotinylated FcRn reagent were prepared in pH 5.5 MES/NaCl/Tween/10% Superblock buffer at concentrations from 1000 ng/ml to 0.45 ng/ml and loaded at 100 μL/well using a multichannel pipettor onto the strips coated with the insulin-Fc fusion protein compounds. The assay plate was then incubated for 1 hour at room temperature. FcRn binding strips were washed 4 times with pH 5.5 MES/NaCl/Tween buffer and then loaded with 100 μl/well […] diluted 1:10000 in pH 5.5 MES/NaCl/10% Superblock buffer. After incubating for 45 minutes, strips were washed again 4 times with pH 5.5 MES/NaCl/Tween buffer. TMB was finally added to reveal the bound biotinylated-canine FcRn reagent, and the color development was stopped with the ELISA stop reagent. The plate was read in an ELISA plate reader at a wavelength of 450 nm. The OD values (proportional to the binding of canine-FcRn to the insulin-Fc fusion protein test compounds) were plotted against log concentrations of FcRn added to each well to generate binding curves using GraphPad Prism software. EC50 values for each binding curve were calculated to compare between different compounds.

B1: insulin-Fc fusion protein of SEQ ID NO: 112 (Fc fusion)
chain: FVNQHLCGSDLVEALALVCGERGFFYTDPTGGGPRRGIVEQCCHSICSLYQLENYCNGGGGSGGGGGEGPKCPVPEIPGAPSVFIFPPKPKDTLSISRTPEVTCLVVDLGPDDSNVQITWFVDNTEMHTAKTRPREEQFNSTYRVVSVLPILHQDWLKGKEFKCKVNSKSLPSAMERTISKAKGQPHEPQVYVLPPTQEELSENKVSVTCLIKGFHPPDIAVEWEITGQPEPENNYQTTPPQLDSDGTYFLYSRLSVDRSHWQRGNTYTCSVSHEALHSHHTQKSLTQSPG
notes: Feline IgG2 Fc, B16A insulin polypeptide; homodimer
- IC50 (human insulin receptor [1]): 53 nM
- IC50 (human insulin receptor [2]): 53 nM

B3: insulin-Fc fusion protein of SEQ ID NO: 106 (Fc fusion)
chain: B1 chain with A16Y
notes: homodimer
- IC50 (human insulin receptor [1]): 22 nM
- IC50 (human insulin receptor [2]): 22 nM

B4: insulin-Fc fusion protein of SEQ ID NO: 60 (Fc fusion)
chain: FVNQHLCGSDLVEALALVCGERGFFYTDPTGGGPRRGIVEQCCHSICSLYQLENYCNGGGGAGGGGDCPKCPAPEMLGGPSVFIFPPKPKDTLLIARTPEVTCVVVDLDPEDPEVQISWFVDGKQMQTAKTQPREEQFSGTYRVVSVLPIGHQDWLKGKQFTCKVNNKALPSPIERTISKARGQAHQPSVYVLPPSREELSKNTVSLTCLIKDFFPPDIDVEWQSNGQQEPESKYRTTPPQLDEDGSYFLYSKLSVDKSRWQRGDTFICAVMHEALHNHYTQESLSHSPG
notes: homodimer; also called cNg-S; cNg-NB139-S
- Ratio to SEQ ID NO: 52 [3]: 0.24 ratio
- fold lower Fc(gamma)RI binding than SEQ ID NO: 52 [4]: 4 fold lower

B5: insulin-Fc fusion protein of SEQ ID NO: 62 (Fc fusion)
chain: B4 chain with S139D
notes: homodimer; also called cNg-D; cNg-NB139-D
- Ratio to SEQ ID NO: 52 [3]: 0.44 ratio
- fold of Fc(gamma) receptor binding activity against SEQ ID NO: 60 and SEQ ID NO: 64 [4]: ~2 fold

B6: insulin-Fc fusion protein of SEQ ID NO: 38 (Fc fusion)
chain: FVNQHLCGSHLVEALELVCGERGFHYGGGGGGSGGGGGIVEQCCTSTCSLDQLENYCGGGGGQGGGGQGGGGQGGGGGDCPKCPPPEMLGGPSIFIFPPKPKDTLSISRTPEVTCLVVDLGPDDSDVQITWFVDNTQVYTAKTSPREEQFNSTYRVVSVLPILHQDWLKGKEFKCKVNSKSLPSPIERTISKDKGQPHEPQVYVLPPAQEELSRNKVSVTCLIEGFYPSDIAVEWEITGQPEPENNYRTTPPQLDSDGTYFLYSRLSVDRSRWQRGNTYTCSVSHEALHSHHTQKSLTQSPG
notes: homodimer
- IC50 (human insulin receptor [5]): 2.4 µM
- EC50 (biotinylated canine FcRn): 1.55 µg/mL
- binding result [4]: binds

B7: insulin-Fc fusion protein of SEQ ID NO: 40 (Fc fusion)
chain: B6 chain with E16A, N151S
notes: homodimer
- IC50 (human insulin receptor [5]): 4.63 µM
- EC50 (biotinylated canine FcRn): 8.16 µg/mL
- fold less Fc(gamma) receptor activity than SEQ ID NO: 38 [4]: ~4 fold less

The next lines start with the values.

- IC50 (human insulin receptor [1]): 41 nM
B2: insulin-Fc fusion protein of SEQ ID NO: 110 (Fc fusion)
chain: B1 chain with S62A
notes: homodimer

- IC50 (human insulin receptor [2]): 2540 nM
- EC50 (biotinylated canine FcRn): 3.11 µg/mL
B8: insulin-Fc fusion protein of SEQ ID NO: 122 (Fc fusion)
chain: FVNQHLCGSHLVEALELVCGERGFHYGGGGGGSGGGGGIVEQCCTSTCSLDQLENYCGGGGGQGGGGQGGGGQGGGGGGEGPKCPVPEIPGAPSVFIFPPKPKDTLSISRTPEVTCLVVDLGPDDSNVQITWFVDNTEMHTAKTRPREEQFNSTYRVVSVLPILHQDWLKGKEFKCKVNSKSLPSAMERTISKAKGQPHEPQVYVLPPTQEELSENKVSVTCLIKGFHPPDIAVEWEITGQPEPENNYQTTPPQLDSDGTYFLYSRLSVDRSHWQRGNTYTCSVSHEALHSHHTQKSLTQSPG
notes: homodimer

- IC50 (human insulin receptor [1]): 62 nM
- IC50 (human insulin receptor [2]): 62 nM
B9: insulin-Fc fusion protein of SEQ ID NO: 108 (Fc fusion)
chain: FVNQHLCGSDLVEALALVCGERGFFYTDPTGGGPRRGIVEQCCHSICSLYQLENYCNGGGGSGGGGDCPKCPPPEMLGGPSIFIFPPKPKDTLSISRTPEVTCLVVDLGPDDSDVQITWFVDNTQVYTAKTSPREEQFNSTYRVVSVLPILHQDWLKGKEFKCKVNSKSLPSPIERTISKDKGQPHEPQVYVLPPAQEELSRNKVSVTCLIEGFYPSDIAVEWEITGQPEPENNYRTTPPQLDSDGTYFLYSRLSVDRSRWQRGNTYTCSVSHEALHSHHTQKSLTQSPG
notes: about 49% homodimer
